Results taken from patent publication CN117567612A (CHINA RESOURCES BIOMEDICAL CO LTD, dated 2024).

Columns and labels:
CLDN18.2 [1] = molecular target: T1, CLDN18.2; experiment: kinetics, method not stated
T1 construct: For the EC50 it stood on overexpressing cells; also called claudin18.2; CLDN18.2过表达细胞

CLDN18.2 [2] = molecular target: T1, CLDN18.2; experiment: flow cytometry on CLDN18.2-overexpressing cells, MFI fitted in GraphPad Prism

B1: IMAB362 (antibody, V domains shown)
VH: QVQLQQPGAELVRPGASVKLSCKASGYTFTSYWINWVKQRPGQGLEWIGNIYPSDSYTNYNQKFKDKATLTVDKSSSTAYMQLSSPTSEDSAVYYCTRSWRGNSFDYWGQGTTLTVSS
VL: DIVMTQSPSSLTVTAGEKVTMSCKSSQSLLNSGNQKNYLTWYQQKPGQPPKLLIYWASTRESGVPDRFTGSGSGTDFTLTISSVQAEDLAVYYCQNDYSYPFTFGSGTKLEIKR
Kd (CLDN18.2 [1]): 4.17 nM | koff (CLDN18.2 [1]): 0.00158 s⁻¹ | kon (CLDN18.2 [1]): 378000 M⁻¹ s⁻¹ | EC50 (CLDN18.2 [2]): 1.75 µg/mL

B2: CLDN-BC-P1022-hH1 (antibody, V domains shown)
VH: QVQLVQSGGGLVQPGGSLRLSCAASGFTFSSYEMNWVRQAPGKGLEWVAYITGSGRTMYYADSVKGRITISRDNAKNSLYLQMNSLRAEDTAVYYCARYWNYAGGMDVWGQGTLVTVSS
VL: DIQMTQSPSSVSASVGDRVTITCRASQGISSWLAWYQQKPGKAPKLLIYAASSLQSGVPSRFSGSGSGTDFTLTISSLQPEDFATYYCQQANSFPLTFGGGTKVEIK
notes: detected with anti-human IgG Fc); P1022 is the only antibody of the application; also called CLN-P1022-hH1; 全人源抗体P1022
EC50 (CLDN18.2 [2]): 0.12 µg/mL
